Measurements: the nanobody polyreactivity screen of Harvey et al. (2022)

Test: yeast display, Sf9 membrane polyspecificity reagent, FACS + sequencing; frameworks hold sequencing errors
Outline: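 Nanobodies came from a synthetic yeast display library in Saccharomyces cerevisiae BJ5465, induced with galactose for 36–48 hours and stained for 1 hour at 4 °C with 10% biotinylated, detergent-solubilized Sf9 membrane reagent. Cells were enriched on streptavidin microbeads and then FACS-sorted, with low and high (top ~1%) gates set on anti-HA fluorescence for expression and streptavidin fluorescence for reagent binding. Each polyreactivity label reflects the gate a clone came from. Genes were amplified by colony PCR, sequenced by MiSeq 2 × 250 and filtered by CDR length.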

Row | Sequence | polyreactivity (PSR sort gate)
1 | QVQLVESGGGLVQAGGSLRLSCAASGFTFSYYAMGWYRQAPGKERELVATITWDGGSTYYADSVKGRFTISRDNAKNTVYLQMNSLKPEDTAVYYCAAQYYRWQTKYDYWGQGTQVTVSS | high polyreactivity
2 | QVQLVESGGGLVQAGGSLRLSCAASGFTFSYYVMGLYRQAPGKERELVAAITSGGSTYYADSVKGRFTISRDNAKNTVYLQMNSLKPEDTAVYYCNARTYSRVTRQTYRYRPYDYWGQGTQVTVSS | high polyreactivity
3 | QVQLVESGGGLVQAGGSLRLSCAASGFTFTAYAMGWSRQAPGKERELVAAISSGGSTYYADSVKGRFTISRDNAKNTVYLQMNSLKPEDTAVYYCAAVGVYTVKREYWGQGTQVTVSS | low polyreactivity
4 | QVQLVESGGGLVQAGGSLRLSCAASGFTFTAYAMGWYRQAPGKERELVAAISRSGGSTSYADSVKGRFTISRDNAKNTVYLQMNSLKPEDTAVYYCAAGRVGWGQGTQVTVSS | high polyreactivity
5 | QVQLVESGGGLVQAGGSLRLSCAASGFTFTGNAMGWYRQAPGKERELVAAITSGGRTYYADSVKGRFTISRDNAKNTVYLQMNSLIPEDTAVYYCNTAGLKRYVTFYYWGQGTQVTVSS | high polyreactivity
6 | QVQLVESGGGLVQAGGSLRLSCAASGFTFTMNAMGWYRQAPGKERELVAGISSGGSTNYADSVKGRFTLSRDNEKNTVYLQMNSLKPEDTAVYYCAADRGYVWRYDYWGQGTQVTVSS | low polyreactivity
7 | QVQLVESGGGLVQAGGSLRLSCAASGFTFTNYVMGWYRQAPGKETELVAAIRRSGDSTYYADSVKGRFTISRDNAKNTVYLQMNSLKPEATAVYYCNAVAYGRTYDYWGQGTQVTVSS | high polyreactivity
8 | QVQLVESGGGLVQAGGSLRLSCAASGFTFTRYAMGWYRQAPGKERELVAAISSRGGSTNYADSVKGRFTISRDNAKNTVYLQMNSLKPEDTAVYYCAAEYYRLRYEYDYWGQGTQVTVSS | high polyreactivity
9 | QVQLVESGGGLVQAGGSLRLSCAASGFTFTRYAMGWYRQAPGKERELVAAISWNSGSTYYADSVKGRFTISRDNAKNTVYLQMNSLKPEDTAVYYCAAAFLRVYYGYTGAFDYWGQGTQVTVSS | high polyreactivity
10 | QVQLVESGGGLVQAGGSLRLSCAASGFTFTSYVMGWYRQAPGKEREFVAAITRSAGGTYYADSVKGRFTISRDNAQNTFYLQINSLKPEDTAVYYCAAEYYVPGGGAYRGDYWGQGTQVTGSS | high polyreactivity
11 | QVQLVESGGGLVQAGGSLRLSCAASGFTFTWYAMGWYRPAPGKERELVAAISSGGGRTYYADSVKGRFTISRDNAKNTVYLQMNSLKPEDTAVYYCNKVSSFGYYYWGQGTQVTVSS | high polyreactivity
12 | QVQLVESGGGLVQAGGSLRLSCAASGFTFTWYAMGWYRQAPGKERELVATISRSGGRTYYADSVKGRFTISRDNAKNPVYLQMNSLKPEVTAVYYCAADTRNYPRYDYWGQGTQVTVSS | high polyreactivity
13 | QVQLVESGGGLVQAGGSLRLSCAASGFTFTWYAMGWYRQAPGKERELVATISRSGGRTYYADSVKGRFTISRDNAKNTVYLQMNSLKPEDTAVYYCAADTRNYPRYDYWGQGTQVTVSS | high polyreactivity
14 | QVQLVESGGGLVQAGGSLRLSCAASGFTFTYNAMGWYRQAPGKERELVAAITANGGGTNYADSVKGRFTISRDNEKNTVYLQMNSLKPEDTAVYYCAATIVVAVFESLGFYWYTEDNYWGQGTQVTVSS | low polyreactivity
15 | QVQLVESGGGLVQAGGSLRLSCAASGFTFTYNAMGWYRQAPGKERELVAAITLSGGSTYADSVKGRFTISRDNAKNTVYLQMNSLKPEDTAVYYCNADAGVYSANATDGYDYWGQGTQVTVSS | low polyreactivity
16 | QVQLVESGGGLVQAGGSLRLSCAASGFTFTYYAMGWYRQAPGKERELVAAITKSGGSTYYADSVKGRFTISRDNAKNTVYFQMNSLKPEDTAVYYCAADTRYGRERYYWGQGTQVTVSS | high polyreactivity
17 | QVQLVESGGGLVQAGGSLRLSCAASGFTFTYYTMGWYRQAPGKERELVAAISWSGSSTYYADSVKGRFTISRDNAKNTVYLQMNSLKPEDTAVYYCAAKYRGKYYYWGQGTQVTVSS | high polyreactivity
18 | QVQLVESGGGLVQAGGSLRLSCAASGFTFVAYAMGWYRQAPGKERELVAALRRTGGSSSYADSVKGRFTISRDIAKNTVYLQMNRLKPEDTSVYYCNKVRLISGVYWSYQAFGYWGQGTQVTVSS | high polyreactivity
19 | QVQLVESGGGLVQAGGSLRLSCAASGFTFVEYAMGWYRQAPGKERELVASIRRSGGRTYYADSVKGRFTISRDNAKNTVYLQMNSLKPEDTAVYYCAKSVPRYYSKSGLAYEFDYWGQGTQVTVSS | low polyreactivity
20 | QVQLVESGGGLVQAGGSLRLSCAASGFTFVFYAMGWYRQAPGKERELVAGISRTGGSTYYADSVKGRFTISRDNAKNTVYLQMNSLKPEDTAVYYCNAARFTRRDYWGQGTQVTVSS | high polyreactivity
21 | QVQLVESGGGLVQAGGSLRLSCAASGFTFVGNAMGWYRQAPGKERELVATITSGGNTKYADSVKGRFTISRDNAKNTVYLQMNSLKPEDTAVYYCAAAKYNYRRFNSWGQGTQVTVSS | low polyreactivity
22 | QVQLVESGGGLVQAGGSLRLSCAASGFTFVINDMGWYRQAPGKERELVADITSGGDTYYADSVKGRFTISRDNAKNTVYLQLNSLKPEDTAVYYCAADIYPDWIYLLYGYWGQGTQVTVSS | low polyreactivity

Row | Sequence | polyreactivity (PSR sort gate)
23 | QVQLVESGGGLVQAGGSLRLSCAASGFTFVNYVMGWYRQAPGKERELVAAISRSGGSTYYADSVKGRFTISRDNAKNTVYLQMNSLKPEDTAVYYCAARWFYRAGFNYWGQGTQVTVSS | high polyreactivity
24 | QVQLVESGGGLVQAGGSLRLSCAASGFTFVPYAMGWYIQAPGKERELVAAISSRGDSTYYADSVKGRFTISRDNAKNTVYLQMNSLKPEDTAVYYCNARTTPHMDYWGQGTQVTVSS | low polyreactivity
25 | QVQLVESGGGLVQAGGSLRLSCAASGFTFVPYAMGWYRQAPGKERELVAAISYSGGSRYYADSVKGRFTISRDNAKNTVYLQMNSLKPEDTAVYYCAALRWYHYGYWGQGTQVTVSA | high polyreactivity
26 | QVQLVESGGGLVQAGGSLRLSCAASGFTFVQYAMGWYRQAPGKERELVATISKSGGITYYADSVKGRFKISRDYAKNTVYLQMNSLKPEDTAVYYCAASWYYSSRGFHATWGHDYWGQGTQVTVSS | low polyreactivity
27 | QVQLVESGGGLVQAGGSLRLSCAASGFTFVRNAMGWYRQAPGKEREFVAAITWTGGSTSYADSVKGRFTISRDNAMITVYLQMNSLKPEDTAVYYCDAVGYGYGFEYWGQGTQVTVSA | high polyreactivity
28 | QVQLVESGGGLVQAGGSLRLSCAASGFTFVRYAMGWYRQAPGKEREFVAGITRSGGSTYYADSVKGRFTISRDNAKNTVYLQMNSLKPEDTAVYYCNRAYYSYHDQPYEYWGQGTQVSVSS | high polyreactivity
29 | QVQLVESGGGLVQAGGSLRLSCAASGFTFVRYAMGWYRQAPGKERELVAAISSSGSSTYYADSVKGRFTISRDPVKNTVYLQMNSLIPEDTAVYYFNARAGGGEDYWGQGTQVTVSS | low polyreactivity
30 | QVQLVESGGGLVQAGGSLRLSCAASGFTFVRYAMGWYRQAPGKERELVAGISRRGGSTYYADSVKGRFTISRDNAKNTVYLQMNSLKPEDTAVYYCAAKPIYYSRGYYWGQGTQVTVSS | high polyreactivity
31 | QVQLVESGGGLVQAGGSLRLSCAASGFTFVRYTMGWYRKAPGKERELVAAITASGDRTYYADSVKGRFTISRDNAKNTVYLQMNSLKPEDTAVYYCAKEYWGVTPTYYYWGQGTQVTVSS | high polyreactivity
32 | QVQLVESGGGLVQAGGSLRLSCAASGFTFVRYTMGWYRQAPGKERELVAAITASGDRTYYADSVKGRFTISRDNAKNTVYLQMNSLKPEDTAVYYCAARVWRTVTRSKYGYWGQGTQVTVSS | high polyreactivity
33 | QVQLVESGGGLVQAGGSLRLSCAASGFTFVSYAMGWSRQAPGKERELVAVISKSGSRTSYAESVKGRFTISRDNAKNTVYLQMNSLKPEDTAVYYCAVYYTRIGPRYDYWGQGTQVTVSS | high polyreactivity
34 | QVQLVESGGGLVQAGGSLRLSCAASGFTFVSYAMGWYRQAPGKERELVASITWTGGSTYYADSVKGRFTISRDNAKNTVYLQMNSLKPEDTAVYYGAAQQFYSGILGRYYWGQGTQVTVSS | low polyreactivity
35 | QVQLVESGGGLVQAGGSLRLSCAASGFTFVTNAMGWYRQAPGKERELVAAISSSGARTYYADSVKGRFTISRDNAKNTVYLQMNSLKPEDTAVYYCAVYYYDFTSTEYGYWGQGTQVTVSS | high polyreactivity
36 | QVQLVESGGGLVQAGGSLRLSCAASGFTFVVYAMGWYRQAPGKERELVAAISARGGRTYYADSVKGRFTISRDNAKNTVYLQMNSLKPEDTAVYYCAATNQRQTRYDYWGQGTQVTVSS | high polyreactivity
37 | QVQLVESGGGLVQAGGSLRLSCAASGFTFVYNAMGWYRQAPGKERELVAAITSGGNTYYADSVKGRFTISRDNAKNTVYLQMNSLKPEDTAVYYCAKRGYVRYYAYDYWGQGTQVTVSS | high polyreactivity
38 | QVQLVESGGGLVQAGGSLRLSCAASGFTFVYNAMGWYRQAPGKERELVAAITSGGNTYYADSVKGRFTISRDNAKNTVYLQMNSLKPEDTAVYYCAKVQNGQWSTSRVPGDYQYNYWGQGTQVTVSS | high polyreactivity
39 | QVQLVESGGGLVQAGGSLRLSCAASGFTFVYYAMGWYRQAPGKERELVAAISSGGRTYYADSVKGRFTISRDNAKNTVYLQMNSLKPEDTAGYYCNKKVGSYYRSYYYWGQGTQVTVSS | high polyreactivity
40 | QVQLVESGGGLVQAGGSLRLSCAASGFTFVYYAMVWYRQAPGKERELVAAISRSGGSTYYADSVKGRFTISRDNAKNTVYLQMNSLKPEDTAVYYCAADIVARYPYDYAMYYWGQGTQVTVSS | high polyreactivity
41 | QVQLVESGGGLVQAGGSLRLSCAASGFTFVYYNMGWYRQAPGKERELVAAITQSGGRTYYADSVKGRFTISRDNAKNTVYLQMNCLKPEDTAVYYCAARLWGKRDYRMDYWGQGSQVTVSS | high polyreactivity
42 | QVQLVESGGGLVQAGGSLRLSCAASGFTFVYYVMGWYRQAPGKERELVAAIRSGDGNTHYADTEKGRFTISRDNAKNTVYLQMNSLKPEDTAVYYCAASSRTFGYKYFYWGQGTQVTVSS | high polyreactivity
43 | QVQLVESGGGLVQAGGSLRLSCAASGFTFWDYAMGWYRQAPGKESELVAAISDNDGSTDYADYVKGRFTISRDNAKNTVYLPMNSLKPEDTAVYYCNGEIELPSKEGDYWGQGTQVTVSS | low polyreactivity
